target: acetylcholine receptor; assay: SPR, peptide at 10 uM, acetylcholine receptor immobilized on chip

| Binding affinity (RU) | Binder |
| --- | --- |
| 17 | KMMMR [5mer-934] |
| 17 | RPCFR [5mer-910] |
| 22 | RITWK [5mer-641] |
| 33 | KDHIR [5mer-611] |
| 19 | RYMDR [5mer-628] |
| 19 | RMSWK [5mer-618] |
| 13 | KHTFK [5mer-913] |
| 33 | RFSHR [5mer-632] |
| 28 | KCDHK [5mer-637] |
| 28 | KMTHR [5mer-915] |
| 20 | RDSER [5mer-608] |
| 32 | RPTNK [5mer-629] |
| 27 | RTAWK [5mer-932] |
| 32 | RETFK [5mer-935] |
| 12 | KICMR [5mer-626] |
| 13 | RKEGK [5mer-604] |
| 23 | KCTDK [5mer-612] |
| 22 | KEHER [5mer-624] |
| 27 | RNEKK [5mer-924] |
| 25 | RCHFK [5mer-908] |
| 12 | RNNVR [5mer-918] |
| 22 | RNCWK [5mer-926] |
| 32 | RKTMK [5mer-609] |
| 14 | REHGK [5mer-911] |
| 19 | KCWMK [5mer-923] |
| 20 | RAAKR [5mer-633] |
| 13 | KKSMK [5mer-621] |

| Binding affinity (RU) | Binder |
| --- | --- |
| 22 | RKPKR [5mer-622] |
| 24 | KMHAR [5mer-939] |
| 20 | RAEFR [5mer-613] |
| 11 | KDKGR [5mer-636] |
| 19 | KNTGR [5mer-623] |
| 21 | KASNR [5mer-937] |
| 20 | RAWVR [5mer-930] |
| 30 | RPSPR [5mer-905] |
| 32 | KNNIK [5mer-919] |
| 12 | RCHER [5mer-916] |
| 27 | RYMKK [5mer-933] |
| 29 | RNTWK [5mer-614] |
| 20 | KCCNR [5mer-615] |
| 27 | KHMVR [5mer-928] |
| 15 | KPKIK [5mer-920] |
| 26 | RPTMR [5mer-914] |
| 25 | KDCFK [5mer-925] |
| 16 | KKMGR [5mer-912] |
| 19 | RDEDR [5mer-927] |
| 33 | RINVK [5mer-909] |
| 17 | RPANR [5mer-631] |
| 25 | RIHWK [5mer-606] |
| 30 | KMSPK [5mer-627] |
| 23 | REDPK [5mer-902] |
| 18 | RIEFK [5mer-938] |
| 33 | KHCIR [5mer-638] |
| 21 | KKKFK [5mer-921] |

| Binding affinity (RU) | Binder |
| --- | --- |
| 23 | RCMHK [5mer-620] |
| 13 | KETWK [5mer-639] |
| 15 | KFCPR [5mer-616] |
| 18 | KDSVR [5mer-907] |
| 30 | RITFR [5mer-630] |
| 21 | RMNGR [5mer-635] |
| 16 | KCDDK [5mer-610] |
| 26 | RMMMR [5mer-634] |
| 31 | RKHAK [5mer-906] |
| 29 | RNHKR [5mer-936] |
| 12 | KMSVR [5mer-602] |
| 21 | RHHKR [5mer-903] |
| 28 | KYTFR [5mer-929] |
| 11 | KCAPR [5mer-917] |
| 25 | RIEER [5mer-607] |
| 33 | KMCDR [5mer-625] |
| 15 | KNPHK [5mer-640] |
| 23 | KPDPK [5mer-904] |
| 19 | KCSFK [5mer-619] |
| 28 | RYCAK [5mer-617] |
| 18 | KCMGK [5mer-940] |
| 11 | RITER [5mer-931] |
| 14 | RMWKR [5mer-922] |
| 27 | RKEPK [5mer-603] |
| 22 | RECFK [5mer-605] |

From patent publication US20250011363A1, “OPTIMIZED SHORTENED PEPTIDE THAT BINDS TO ACETYLCHOLINE RECEPTOR, AND USE THEREOF” (SKINMED CO., LTD., priority 2021, published 2025)
